This passage reports Kd results from article PMC11696079 (Nature Communications, 2025).

Several values for one entry are separate records, joined by “and”; a condition that tells them apart may be missing. Equal entries are not always repeated.

The assay addresses recombinant wild-type PKM2 (WT) (UniProt P14618 1-531). The experiment in a line: SPR. A general note: Surface plasmon resonance follows binding to a sensor surface in real time, without labels.

Sequence of recombinant wild-type PKM2 (WT) (P14618 whole entry): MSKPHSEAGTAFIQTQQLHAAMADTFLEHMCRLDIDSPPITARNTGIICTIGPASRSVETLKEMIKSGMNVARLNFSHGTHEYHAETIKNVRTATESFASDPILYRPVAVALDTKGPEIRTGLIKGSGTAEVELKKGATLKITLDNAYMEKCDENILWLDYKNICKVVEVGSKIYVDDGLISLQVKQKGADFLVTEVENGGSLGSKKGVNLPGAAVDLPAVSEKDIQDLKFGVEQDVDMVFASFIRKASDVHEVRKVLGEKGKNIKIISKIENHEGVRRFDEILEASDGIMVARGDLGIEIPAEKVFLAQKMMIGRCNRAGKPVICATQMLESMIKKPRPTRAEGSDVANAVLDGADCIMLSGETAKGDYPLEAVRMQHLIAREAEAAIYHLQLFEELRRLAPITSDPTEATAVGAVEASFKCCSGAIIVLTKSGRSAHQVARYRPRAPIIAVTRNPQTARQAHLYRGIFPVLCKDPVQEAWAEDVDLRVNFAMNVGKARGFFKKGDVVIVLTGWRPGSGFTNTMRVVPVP

B1: recombinant wild-type ALDOA (WT) (enzyme)
chain: PYQYPALTPEQKKELSDIAHRIVAPGKGILAADESTGSIAKRLQSIGTENTEENRRFYRQLLLTADDRVNPCIGGVILFHETLYQKADDGRPFPQVIKSKGGVVGIKVDKGVVPLAGTNGETTTQGLDGLSERCAQYKKDGADFAKWRCVLKIGEHTPSALAIMENANVLARYASICQQNGIVPIVEPEILPDGDHDLKRCQYVTEKVLAAVYKALSDHHIYLEGTLLKPNMVTPGHACTQKFSHEEIAMATVTALRRTVPPAVTGITFLSGGQSEEEASINLNAINKCPLLKPWALTFSYGRALQASALKAWGGKKENLKAAQEEYVKRALANSLACQGKYTPSGQAGAAASESLFVSNHAY
One may read the Kd as the equilibrium constant for the complex coming apart. Consider B1, for which the dissociation constant (Kd) is 382 nM and 322 nM.
